According to paper PMC10275869 (Nature Communications, 2023):

Molecular target: MojV F clamp2 (prefusion Mòjiāng virus fusion glycoprotein ectodomain stabilised with the clamp2 molecular … (Mòjiāng virus))
Experiment: ELISA
Settings: both partners purified

Binder	binding result
mAb66 (human IgG1) (antibody, V domains shown) VH: ETGSGGGLVKPGGTLTLTCKASGFTLSSYWMCWVRQAPGKGLELIACLYTNGATTWYASWVNGRFAISRSTSRNTVDLNMTSLTAADTATYFCARGSGSGWSWFNIWGPGTLVTVSS VL: TGVMTQTPASVEAAVGGTVTIKCQASQNIISSLAWYQQKPGQRPKLLIYYASTLASGVPSRFKGSGSGTQFTLTISDLECADAATYYCQSYYYSGITYGNAFGGGTEVVVK	no binding (tested: 50 μg/mL)
12B2 (human IgG1) (antibody, V domains shown) VH: QVQLKESGPGLVAPSQSLSITCTVSGFSLASYGVHWVRQPPGKGLEWLGVIWTGGSTNYNSALMSRLSINRDNSKSQVFLKLNSLQTDDTAIYYCARDRGYGYGGFAYWGQGTLVTVSA VL: DIQMTQSPASLSASVGETVTITCRASENIYSYLAWYQHKQGKSPQLLVYNAKSLAEGVPSRFSGSGSGTQFSLKINSLQPEDFGSYYCQHHYGTPWTFGGGTKLEIK	no binding (tested: 50 μg/mL)
1F5 (human IgG1) (antibody, V domains shown) VH: DVQLQESGPGLVKPSQSLSLTCSVTGYSITSDYYWNWIRQFPGNKLEWMGYVTYDGSNNYNPSLKNRISITRDSSKNQFFLKLNSVISEDTATYYCARFGSSYWAMDYWGQGTSLTVSS VL: QIVLTQSPAIMSASLGEAITLTCSASSSVSYMHWYQQKSGTSPKLLIYSTSNLASGVPSRFSGSGSGTFYSLTISSVEAEDAADYYCHQWYSYPWTFGGGTKLEIK	no binding (tested: 50 μg/mL)
5B3 (human IgG1) (antibody, V domains shown) VH: EVQLVESGGGLVKPGGSLKLSCAASGFTFSSYDMSWVRQTPEKRLEWVAMISSGGSYSYYPDSVKGRFTISRDNAKNTLYLQMSSLRSEDTAMYYCARQGDYAWFAYWGQGTLVTVSS VL: DIQMTQSPASQSASLGESVTITCLASQTIGTWLAWYQQKPGKSPQLLIYAATSLADGVPSRFSGSGSGTKFSFKISSLQAEDFVSYYCQQFYSTPFTFGGGTKLEIK	no binding (tested: 50 μg/mL)
